Experimental data published in patent US20180305431A1 (Novo Nordisk, published 2018).

B1: A14E, A22K(N(eps)hexadecanedioyl-gGlu-2xOEG), B3E, B27E, B28E, B29R, desB30 human insulin (ligand)
chain 1: GIVEQCCTSICSLEQLENYCNK
chain 2: FVEQHLCGSHLVEALYLVCGERGFFYEER
modifications: not fully specified; Lys A22 acylated on N(eps) with hexadecanedioyl-gGlu-2xOEG
notes: Two-chain acylated insulin analogue; also called Ex. No. 26
B2: A14E, A22K(N(eps)tetradecanedioyl-4xgGlu), B3Q, B27E, B28E, B29R, desB30 human insulin (ligand)
chain 1: GIVEQCCTSICSLEQLENYCNK
chain 2: FVQQHLCGSHLVEALYLVCGERGFFYEER
modifications: not fully specified; Lys A22 acylated on N(eps) with tetradecanedioyl-4xgGlu
notes: also called Ex. No. 9
B3: A14E, A22K(N(eps)tetradecanedioyl-gGlu-2xOEG), B3E, B27E, B28E, B29R, desB30 human insulin (ligand)
chain 1: GIVEQCCTSICSLEQLENYCNK
chain 2: FVEQHLCGSHLVEALYLVCGERGFFYEER
modifications: not fully specified; Lys A22 acylated on N(eps) with tetradecanedioyl-gGlu-2xOEG
notes: Two-chain acylated insulin analogue; also called Ex. No. 2
B4: A14E, A22K(N(eps)tetradecanedioyl-4xgGlu), B3Q, B28D, B29R, desB30 human insulin (ligand)
chain 1: GIVEQCCTSICSLEQLENYCNK
chain 2: FVQQHLCGSHLVEALYLVCGERGFFYTDR
modifications: not fully specified; Lys A22 acylated on N(eps) with tetradecanedioyl-4xgGlu
notes: also called Ex. No. 8
B5: A14E, A22K(N(eps)tetradecanedioyl-4xgGlu), B3E, B27E, B28E, B29R, desB30 human insulin (ligand)
chain 1: GIVEQCCTSICSLEQLENYCNK
chain 2: FVEQHLCGSHLVEALYLVCGERGFFYEER
modifications: not fully specified; Lys A22 acylated on N(eps) with tetradecanedioyl-4xgGlu
notes: Two-chain acylated insulin analogue; also called Ex. No. 4
B6: A8R, A22K(N(eps)tetradecanedioyl-4xgGlu), B3E, B26E, B27E, B28R, desB29, desB30 human insulin (ligand)
chain 1: GIVEQCCRSICSLYQLENYCNK
chain 2: FVEQHLCGSHLVEALYLVCGERGFFEER
modifications: not fully specified; Lys A22 acylated on N(eps) with tetradecanedioyl-4xgGlu
notes: Two-chain acylated insulin analogue; also called Ex. No. 19
B7: A8R, A22K(N(eps)tetradecanedioyl-4xgGlu), B3E, B27E, B28R, desB29, desB30 human insulin (ligand)
chain 1: GIVEQCCRSICSLYQLENYCNK
chain 2: FVEQHLCGSHLVEALYLVCGERGFFYER
modifications: not fully specified; Lys A22 acylated on N(eps) with tetradecanedioyl-4xgGlu
notes: Two-chain acylated insulin analogue; also called Ex. No. 17
B8: A8R, A22K(N(eps)tetradecanedioyl-4xgGlu), B3E, B26E, B27P, B28R, desB29, desB30 human insulin (ligand)
chain 1: GIVEQCCRSICSLYQLENYCNK
chain 2: FVEQHLCGSHLVEALYLVCGERGFFEPR
modifications: not fully specified; Lys A22 acylated on N(eps) with tetradecanedioyl-4xgGlu
notes: also called Ex. No. 16

Molecular target: membrane-associated human IR-B (plasma membranes of BHK cells stably transfected with the human IR-B insert) (human) (UniProt P06213)
Sequence (P06213 28-1382): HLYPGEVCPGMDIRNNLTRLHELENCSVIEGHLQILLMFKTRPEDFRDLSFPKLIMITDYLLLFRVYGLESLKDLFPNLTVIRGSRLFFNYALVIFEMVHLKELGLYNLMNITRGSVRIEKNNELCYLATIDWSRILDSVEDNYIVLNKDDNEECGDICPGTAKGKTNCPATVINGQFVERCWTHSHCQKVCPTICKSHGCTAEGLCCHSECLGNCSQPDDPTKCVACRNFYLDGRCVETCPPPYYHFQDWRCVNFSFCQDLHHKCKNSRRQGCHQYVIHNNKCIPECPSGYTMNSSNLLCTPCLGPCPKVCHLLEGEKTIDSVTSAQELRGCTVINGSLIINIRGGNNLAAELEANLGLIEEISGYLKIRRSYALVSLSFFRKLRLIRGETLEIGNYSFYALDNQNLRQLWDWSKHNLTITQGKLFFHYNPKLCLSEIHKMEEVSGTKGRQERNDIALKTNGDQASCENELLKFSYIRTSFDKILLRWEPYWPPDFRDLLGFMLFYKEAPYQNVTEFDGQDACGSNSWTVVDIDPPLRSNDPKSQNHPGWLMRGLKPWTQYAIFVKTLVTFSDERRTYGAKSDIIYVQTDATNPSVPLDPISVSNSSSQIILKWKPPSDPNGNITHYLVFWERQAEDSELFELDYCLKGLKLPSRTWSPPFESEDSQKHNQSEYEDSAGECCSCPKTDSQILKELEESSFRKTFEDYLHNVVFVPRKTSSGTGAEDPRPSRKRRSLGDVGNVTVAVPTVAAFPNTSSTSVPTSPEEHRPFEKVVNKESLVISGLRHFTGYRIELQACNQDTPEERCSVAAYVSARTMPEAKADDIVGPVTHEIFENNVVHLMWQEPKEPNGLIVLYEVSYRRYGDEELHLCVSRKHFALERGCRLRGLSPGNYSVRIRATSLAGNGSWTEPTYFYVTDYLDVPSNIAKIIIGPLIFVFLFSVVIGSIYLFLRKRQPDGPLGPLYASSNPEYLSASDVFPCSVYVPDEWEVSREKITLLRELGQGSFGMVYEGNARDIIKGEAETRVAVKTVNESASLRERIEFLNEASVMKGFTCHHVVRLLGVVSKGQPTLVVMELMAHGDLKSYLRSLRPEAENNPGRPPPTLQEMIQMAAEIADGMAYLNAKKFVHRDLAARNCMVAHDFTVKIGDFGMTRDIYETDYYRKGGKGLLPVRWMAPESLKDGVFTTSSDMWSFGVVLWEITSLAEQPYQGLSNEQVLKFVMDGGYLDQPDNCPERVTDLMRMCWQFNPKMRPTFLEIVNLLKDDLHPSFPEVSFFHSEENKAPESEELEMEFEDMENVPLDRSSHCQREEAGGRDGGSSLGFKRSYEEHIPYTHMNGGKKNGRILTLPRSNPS
Assay: SPA competition vs [125I-A14Y]-human insulin, membrane hIR-B, 0.1% HSA

relative binding affinity (% rel to HI)	Binder
28.7 % rel to HI	B1
68.7 % rel to HI	B2
70.2 % rel to HI	B3
59.1 % rel to HI	B4
56.6 % rel to HI	B5
155 % rel to HI	B6
130 % rel to HI	B7
168 % rel to HI	B8

Molecular target: insulin receptor on primary rat adipocytes (rat) (UniProt P15127)
Sequence (P15127 27-1383): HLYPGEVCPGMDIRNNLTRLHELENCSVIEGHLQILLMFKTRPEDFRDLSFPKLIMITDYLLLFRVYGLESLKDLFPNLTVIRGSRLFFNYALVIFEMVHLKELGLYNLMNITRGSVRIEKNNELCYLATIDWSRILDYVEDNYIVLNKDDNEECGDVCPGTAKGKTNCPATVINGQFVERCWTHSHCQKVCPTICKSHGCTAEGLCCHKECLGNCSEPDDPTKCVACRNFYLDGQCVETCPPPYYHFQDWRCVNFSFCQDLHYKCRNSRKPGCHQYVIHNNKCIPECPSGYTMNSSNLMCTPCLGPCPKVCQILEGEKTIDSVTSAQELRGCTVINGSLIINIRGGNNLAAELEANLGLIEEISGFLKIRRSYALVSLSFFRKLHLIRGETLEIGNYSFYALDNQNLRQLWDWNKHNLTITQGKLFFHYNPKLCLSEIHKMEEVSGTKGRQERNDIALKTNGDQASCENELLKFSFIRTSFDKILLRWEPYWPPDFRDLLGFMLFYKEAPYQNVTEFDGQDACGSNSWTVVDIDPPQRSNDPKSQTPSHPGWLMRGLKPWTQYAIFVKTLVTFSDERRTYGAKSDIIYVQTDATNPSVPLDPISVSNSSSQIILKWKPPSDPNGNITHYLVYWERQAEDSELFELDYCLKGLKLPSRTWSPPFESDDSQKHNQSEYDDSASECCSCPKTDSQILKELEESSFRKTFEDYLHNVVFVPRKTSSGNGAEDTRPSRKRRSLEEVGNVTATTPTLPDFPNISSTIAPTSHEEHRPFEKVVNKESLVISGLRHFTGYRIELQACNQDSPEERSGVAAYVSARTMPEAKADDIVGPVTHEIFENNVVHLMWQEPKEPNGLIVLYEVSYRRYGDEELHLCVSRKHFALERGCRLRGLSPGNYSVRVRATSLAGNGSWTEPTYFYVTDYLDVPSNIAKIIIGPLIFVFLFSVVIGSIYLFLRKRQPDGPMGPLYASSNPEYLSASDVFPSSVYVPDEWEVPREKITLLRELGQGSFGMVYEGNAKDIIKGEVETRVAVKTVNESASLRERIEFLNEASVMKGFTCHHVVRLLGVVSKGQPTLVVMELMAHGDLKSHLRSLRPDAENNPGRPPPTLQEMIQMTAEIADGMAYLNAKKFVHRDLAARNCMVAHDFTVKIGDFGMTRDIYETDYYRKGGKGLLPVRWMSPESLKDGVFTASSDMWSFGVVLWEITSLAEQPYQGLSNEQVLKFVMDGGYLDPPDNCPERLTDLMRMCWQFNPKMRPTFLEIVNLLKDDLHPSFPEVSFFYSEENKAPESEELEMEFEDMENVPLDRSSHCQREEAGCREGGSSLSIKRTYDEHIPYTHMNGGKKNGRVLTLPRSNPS
Assay: cell-based or functional assay

Lipogenesis 1% HSA (% rel to HI)	Binder
2.6 % rel to HI	B1
30.1 % rel to HI	B2
14.2 % rel to HI	B3
17.2 % rel to HI	B4
15.4 % rel to HI	B5
80.3 % rel to HI	B6
70.7 % rel to HI	B7
130 % rel to HI	B8

Molecular target: T1, solubilised human IR-A (semipurified by wheat germ agglutinin chromatography from baby hamster kidney (BHK) … (human, UniProt P06213-2 28-1370))
T1 construct: mature; Detergent-solubilised holoreceptor captured by anti-IR mouse antibody 83-7 on SPA beads; the precursor is processed into alpha and beta chains; also called hIRA; human insulin receptor (IR), A isoform
T1 sequence (P06213 other isoform, or with tags, fused parts or gaps limits assumed): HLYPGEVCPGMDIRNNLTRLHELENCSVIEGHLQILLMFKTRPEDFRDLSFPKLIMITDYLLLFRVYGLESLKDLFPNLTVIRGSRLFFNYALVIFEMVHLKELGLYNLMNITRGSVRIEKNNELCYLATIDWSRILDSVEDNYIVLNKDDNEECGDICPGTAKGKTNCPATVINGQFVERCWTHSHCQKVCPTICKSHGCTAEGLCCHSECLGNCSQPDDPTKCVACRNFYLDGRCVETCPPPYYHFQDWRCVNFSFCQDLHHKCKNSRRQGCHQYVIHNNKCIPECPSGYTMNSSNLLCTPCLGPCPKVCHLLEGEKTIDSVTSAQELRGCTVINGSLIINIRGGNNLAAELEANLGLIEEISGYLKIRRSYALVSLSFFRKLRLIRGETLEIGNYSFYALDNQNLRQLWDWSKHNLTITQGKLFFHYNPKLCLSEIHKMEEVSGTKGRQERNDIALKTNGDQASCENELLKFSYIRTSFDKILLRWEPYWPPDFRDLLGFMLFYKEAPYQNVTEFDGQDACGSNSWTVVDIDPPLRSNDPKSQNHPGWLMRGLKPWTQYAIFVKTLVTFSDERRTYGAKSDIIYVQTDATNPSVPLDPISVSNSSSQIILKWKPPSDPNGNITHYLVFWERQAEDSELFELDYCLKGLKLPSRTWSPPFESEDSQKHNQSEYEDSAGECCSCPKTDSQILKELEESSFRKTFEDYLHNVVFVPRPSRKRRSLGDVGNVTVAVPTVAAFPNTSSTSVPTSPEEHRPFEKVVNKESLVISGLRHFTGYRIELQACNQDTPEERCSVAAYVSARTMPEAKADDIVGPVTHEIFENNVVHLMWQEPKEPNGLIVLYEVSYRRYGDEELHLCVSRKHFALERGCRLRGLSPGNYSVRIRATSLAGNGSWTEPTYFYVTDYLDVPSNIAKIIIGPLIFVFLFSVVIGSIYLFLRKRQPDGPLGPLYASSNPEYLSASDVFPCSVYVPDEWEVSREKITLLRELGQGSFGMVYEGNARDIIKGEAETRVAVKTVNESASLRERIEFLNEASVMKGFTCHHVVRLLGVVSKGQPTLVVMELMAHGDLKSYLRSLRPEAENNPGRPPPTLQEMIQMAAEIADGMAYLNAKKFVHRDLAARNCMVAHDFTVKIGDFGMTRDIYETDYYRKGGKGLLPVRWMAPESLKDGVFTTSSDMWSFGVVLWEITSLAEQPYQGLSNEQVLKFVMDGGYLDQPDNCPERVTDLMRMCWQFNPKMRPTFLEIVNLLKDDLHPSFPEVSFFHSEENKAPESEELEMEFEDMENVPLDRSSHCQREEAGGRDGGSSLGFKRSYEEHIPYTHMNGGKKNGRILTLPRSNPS
Assay: SPA competition vs [125I-A14Y]-human insulin, solubilised hIR-A, 0% HSA

relative binding affinity (% rel to HI)	Binder
63.7 % rel to HI	B1
83 % rel to HI	B2
60.4 % rel to HI	B3
95.6 % rel to HI	B4
47.4 % rel to HI	B5
260 % rel to HI	B6
243 % rel to HI	B7
317 % rel to HI	B8

Molecular target: T2, membrane-associated human IGF-1R (plasma membranes of BHK cells stably transfected with the human IGF-IR … (human, UniProt P08069 31-1367))
T2 construct: whole, on cells; Receptor in purified plasma membranes, not on intact cells; also called hIGF1R; insulin-like growth factor 1 receptor
Assay: SPA competition vs [125I-Tyr31]-human IGF-1, membrane hIGF-1R, 0.1% HSA
Method: The relative binding affinity for either of the membrane-associated human IR-A, IR-B or IGF-1R is determined by competition binding in a SPA setup. IR assays are performed in duplicate in 96-well OptiPlates (Perkin-Elmer Life Sciences). […] Assays are terminated by centrifugation of the plate at 2000 rpm for 2 minutes and bound radioactivity quantified by counting on a TopCount NXT (Perkin-Elmer Life Sciences).
IGF-1R assays are conducted essentially as for the IR binding assays except that membrane-associated IGF-1R and 50 pM [¹²5-Tyr31]-human IGF-1 were employed.

relative binding affinity (% rel to HI)	Binder
28.7 % rel to HI	B1
29.5 % rel to HI	B2
36.6 % rel to HI	B3
42 % rel to HI	B4
28.6 % rel to HI	B5
22.6 % rel to HI	B6
32.9 % rel to HI	B7
61.8 % rel to HI	B8

Molecular target: membrane-associated human IR-A (plasma membranes of BHK cells stably transfected with the human IR-A insert) (human) (UniProt P06213)
Assay: SPA competition vs [125I-A14Y]-human insulin, membrane hIR-A, 0.1% HSA

relative binding affinity (% rel to HI)	Binder
19.3 % rel to HI	B1
36.8 % rel to HI	B2
50.1 % rel to HI	B3
34.3 % rel to HI	B4
36.6 % rel to HI	B5
88.8 % rel to HI	B6
85.2 % rel to HI	B7
113 % rel to HI	B8

Molecular target: T1, solubilised human IR-A (semipurified by …)
Assay: SPA competition vs [125I-A14Y]-human insulin, solubilised hIR-A, 1.5% HSA

relative binding affinity (% rel to HI)	Binder
7.4 % rel to HI	B1
70.2 % rel to HI	B2
38.9 % rel to HI	B3
64.9 % rel to HI	B4
44.9 % rel to HI	B5
188 % rel to HI	B6
163 % rel to HI	B7
229 % rel to HI	B8
